Data reported in patent publication US20160130336A1.

Target: mVEGF (mouse (from the prefix m only; not spelled out in the filing)) (UniProt Q00731)
Assay: BIAcore (SPR), column mVEGF

Sequence of mVEGF (mouse (from the prefix m only; not spelled out in the filing)) (Q00731 other isoform, or with tags, fused parts or gaps limits assumed): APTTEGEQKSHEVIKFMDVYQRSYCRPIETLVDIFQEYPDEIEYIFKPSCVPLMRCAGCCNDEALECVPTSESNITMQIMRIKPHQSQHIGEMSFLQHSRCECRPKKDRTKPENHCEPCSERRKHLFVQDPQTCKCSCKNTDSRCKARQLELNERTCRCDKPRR

Kd: 6.88 nM
Substance: Avastin® (bevacizumab) (antibody)
